Laboratory results from article PMC4930934.

Tests used:
[1] = molecular target: BMR–HFBI (diflavin reductase domain of P450 BM3 fused at its C-terminus to hydrophobin HFBI) (Bacillus megaterium | Trichoderma reesei) (UniProt P14779)
[2] = molecular target: BMR–HFBI (diflavin reductase domain of P450 BM3 fused at its C-terminus to hydrophobin HFBI) (Bacillus megaterium | Trichoderma reesei) (UniProt P14779); remark: listed apart in the source
[3] = molecular target: BMR–HFBI (diflavin reductase domain of P450 BM3 fused at its C-terminus to hydrophobin HFBI) (Bacillus megaterium | Trichoderma reesei) (UniProt P14779); remark: listed apart in the source

conversion of myristic acid with cofactor regeneration, equimolar ratio (1:1 μM), time course 2-24 h (49% after 2 h, 78% after 6 h, 99% after 24 h) [1]: 99%
conversion of myristic acid with cofactor regeneration, fivefold molar excess of reductase (1:5 μM), after 2 h [2]: 97%
coupling efficiency (product formed per NADPH consumed) in myristic acid hydroxylation, P450:reductase 1:1 (1 μM each) [3]: 57.4%
coupling efficiency (product formed per NADPH consumed) in myristic acid hydroxylation, P450:reductase 1:5 (1 μM : 5 μM) [3]: 92.7%
Substance: BMO–HFBI (monooxygenase domain of P450 BM3 fused at its C-terminus to hydrophobin HFBI) (from UniProt P14779 1-472; P52754 23-97)
